From the supplement of paper PMC10567573 come the findings set out here.

The series in a line: protein stability index of a GFP-peptide fusion (GPS, HEK-293T) (PSI 1-6); higher = more stable.
Where [1] appears, read: treatment: DMSO, c terminus: a fixed tail appended.
The mark [2] stands for this setting: treatment: MLN4924 1 uM, 8 h, c terminus: a fixed tail appended.
Where [3] appears, read: treatment: DMSO, c terminus: native.
[4] abbreviates: treatment: MLN4924 1 uM, 8 h, c terminus: native.

± gives the standard deviation.
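Further: 24-mer peptide tiles fused after GFP, lentivirally expressed, FACS-sorted into six equal bins by GFP/DsRed ratio, decoded by Illumina sequencing, PSI is the read-weighted mean bin number.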

For NWIVPGKFLAFSGPHPKSKIENGY [CDC14A], the protein stability index runs as follows: under setting [1], 2.32 ± 0.36; under setting [2], 2.61 ± 0.48.
For SESTNTTIEDEDTKVRKQEIIKVT [CAMK2A] the same measures were 5.32 ± 0.24 and 5.31 ± 0.18.
On the same counts, the results for FQIAANLSMERYALVFGVNTFIAL [SLC19A2] are 3.2 ± 0.18 and 3.09 ± 0.17.
Turning to WHTIAPMGTRRKHLGCAVYQDMIY [KLHL20], the protein stability index under setting [2] is 1.93 ± 0.96.
For VFDSEKCVSIPDVVGWFVLFYKPG [GULP1], the protein stability index runs as follows: under setting [1], 2.8 ± 1; under setting [2], 2.83 ± 0.33.
Take GDEFSLREHELLCRADHGLLLERA [ISL2]: the protein stability index worked out at 4.06 ± 0.49 under setting [1] and 3.65 ± 0.35 under setting [2].
Sequence GLVDFRDVALALAALDGGRSLEEL [LPCAT4] gave a protein stability index under setting [1] of 2.51 ± 0.34 and a protein stability index under setting [2] of 3.17 ± 0.33.
On the same counts, the results for RQSYDISIVAQVDQTGSKSSNLLD [CARM1] are 3.93 ± 0.092 and 4.07 ± 0.17.
For KIWLVVPSLLELAWEKLLAAFPNL [KLHDC10] the same measures were 2.84 ± 0.16 and 2.73 ± 0.11.
On the same counts, the results for QKSGLIRHQKIHSGEKPYKCSDCG [ZNF649] are 3.63 ± 0.52 and 4.04 ± 0.29.
In the case of TSPYSDPVVSMDLDPQPITDEEEG [PTPRD], the protein stability index is, setting by setting: under setting [1], 5.63 ± 0.19; under setting [2], 5.61 ± 0.095.
Consider YSKTFQRSNVDFLETPELTSTMLV [NECAB1], for which the protein stability index runs as follows: under setting [1], 2.18 ± 0.37; under setting [2], 2.39 ± 0.35.
For ENGYGFHLNAIRGLPGSFIKEVQK [PDZK1] the same measures were 2.62 ± 0.18 and 2.97 ± 0.43.
With CAFLLLRLLVGLALATLRVLRGLA [TMEM175], the protein stability index came out at 3.56 ± 0.37 under setting [1] and 3.35 ± 0.086 under setting [2].
Regarding KAPAKKANSTTTAGRDHFLTCGV [BRD3], the protein stability index under setting [3] was determined as 2.5 ± 0.11 and the protein stability index under setting [4] was 2.74 ± 0.26.
As for LKEFDLDALLGIDDLETMPDDLLT [ATF4], the protein stability index reads like this: under setting [1], 3.81 ± 0.2; under setting [2], 4.05 ± 0.38.
On the same counts, the results for LRAVEQAMGHSQDRLTTFQENQAR [LRRC45] are 4.48 ± 0.23 and 4.34 ± 0.22.
On the same counts, the results for SCTTRLCQEEQLRSHENKLRQLTA [PSD2] are 3.6 ± 0.22 and 3.79 ± 0.33.
For HPAFLPQRQAIKGAFYRRAQRLRP [KCNG1] the same measures were 3.32 ± 0.37 and 3.58 ± 0.33.
As for AELHAHGPAAFVDYFERNWEPRRD [ZSWIM9], the protein stability index is, setting by setting: under setting [1], 3.89 ± 0.3; under setting [2], 4.07 ± 0.23.
On the same counts, the results for DEIEEVPTTSHRLSRHDKAVQRFC [NETO1] are 4.78 ± 0.18 and 4.68 ± 0.1.
For VAFRGLKGKKLYPVVSAVWGHCEV [SPSB4] the same measures were 1.83 ± 0.46 and 2.71 ± 0.2.
On the same counts, the results for AIMNALIEAGAHMDATNAFKKTAY [FEM1A] are 2.51 ± 0.39 and 2.11 ± 0.35.
Turning to APELLGGAEPGTYLTGTINGDPES [ADAMTS4], the protein stability index under setting [1] turned out to be 5.73 ± 0.28 and the protein stability index under setting [2] stood at 5.51 ± 0.36.
Consider HKQLLLFHNAVSAYFAGNQKQLEQ [ARFIP2], for which the protein stability index runs as follows: under setting [1], 2.19 ± 0.45; under setting [2], 2.17 ± 0.18.
In the case of GGPFPLPYTAPGGYLDVGSKPMY [TBX6], the protein stability index came out at 3.12 ± 0.43 under setting [3] and 3.43 ± 0.2 under setting [4].
For EDTKPKPTKRKRKGSSAVGSDSD [INTS3], the protein stability index is 5.45 ± 0.25 under setting [3] and 5.4 ± 0.33 under setting [4].
As to DAEVSCTDNGTFNLSRGQTPLTEG [RETREG3], the protein stability index runs as follows: under setting [1], 5.2 ± 0.25; under setting [2], 5.32 ± 0.1.
For AHELGHSLGLSHSTDIGALMYPSY [MMP1] the same measures were 3.14 ± 0.18 and 2.9 ± 0.14.
On the same counts, the results for TLALEYTYGRRAKGHNTPKDIAHF [DYNC2LI1] are 2.74 ± 0.071 and 2.83 ± 0.22.
Regarding KAVQYEEKNPCRTLCCFCCPCLK [STX11], the protein stability index is 3.59 ± 0.36 under setting [3] and 3.7 ± 0.084 under setting [4].
In turn, RRQLEACQRERAFSVKFEVQAPRW [OAS1] came in with a protein stability index under setting [1] of 2.75 ± 0.23 and a protein stability index under setting [2] of 2.93 ± 0.18.
On the same counts, the results for ENRTLQVLRAEHRGFQEENKALWE [CBY2] are 4.37 ± 0.37 and 4.38 ± 0.17.
Regarding YLTEGLLQFTILLSLIGVRVDVDT [NFE2L1], the protein stability index is, setting by setting: under setting [1], 2.66 ± 0.15; under setting [2], 3.25 ± 0.35.
Take DDGIKVVKVTFNKQDSLVILTIMA [TMEM106C]: the protein stability index runs as follows: under setting [1], 2.71 ± 1; under setting [2], 3.11 ± 1.
On the same counts, the results for GFWRIDPQYAERLLSGAFKKRRLP [FOXJ1] are 2.56 ± 0.12 and 2.4 ± 0.37.
For KDMATGKSKGYGFVSFFNKWDAEN [TIA1] the same measures were 2.44 ± 0.3 and 2.94 ± 0.28.
As for LLEPEEGGRAYQALHCPTGTEYTC [TRIB3], the protein stability index runs as follows: under setting [1], 3.8 ± 0.31; under setting [2], 4.1 ± 0.23.
As for QAWGSMLEVPAGSRLNLTGLGYFS [CCDC3], the protein stability index reads like this: under setting [1], 2.35 ± 0.3; under setting [2], 1.79 ± 0.2.
On the same counts, the results for CGCGSFCRLGYGCGYEGCRYGCGH [KRTAP19-2] are 2.55 ± 0.44 and 2.62 ± 0.46.
On the same counts, the results for GRRLKSPQAPDPEEEENRDSQQPG [FANCE] are 5.44 ± 0.25 and 5.67 ± 0.27.
For TATEELEKTQDDLMKHQTNISELK [EPB41L3] the same measures were 5.69 ± 0.23 and 5.47 ± 0.39.
As for DVPVIPLDVVDNQTEKLDTNITEV [CASP6], the protein stability index worked out at 5.19 ± 0.067 under setting [1] and 5.14 ± 0.3 under setting [2].
Consider EAVKYYTLEEIQKHNHSKSTWLIL [CYB5A], for which the protein stability index turned out to be 2.44 ± 0.65 under setting [1] and 2.3 ± 0.24 under setting [2].
On the same counts, the results for VPQDPDLEEEEEEEDLVLTCEDDE [ZBTB22] are 5.59 ± 0.22 and 5.64 ± 0.25.
On the same counts, the results for LTPGQSDSAKREVKQKISPYFKSN [FAN1] are 3.92 ± 0.19 and 3.97 ± 0.26.
On the same counts, the results for RPSQYRPDGLRSGDGVPPRSLQDG [LCOR] are 4.83 ± 0.091 and 4.85 ± 0.17.
For PPKKPSNWRRKHEEFIATIRAAKG [ZC2HC1A], the protein stability index runs as follows: under setting [1], 3.65 ± 0.15; under setting [2], 3.82 ± 0.14.
As to ELERLIDKAMKKDGLVGMAIVGGM [FIS1], the protein stability index was determined as 2 ± 0.29 under setting [1] and 2.46 ± 0.37 under setting [2].
For GSVALGPVCPTVCPPGGIHQVTVN [KRT71] the same measures were 3.55 ± 0.34 and 3.52 ± 0.28.
As for PALKIYEYHVKPLQTKHLKNNSS [SAMD13], the protein stability index runs as follows: under setting [3], 3 ± 0.15; under setting [4], 3.04 ± 0.2.
As for LLIANKRQSYDISIVAQVDQTGSK [CARM1], the protein stability index was found to be 2.47 ± 0.25 under setting [1] and 2.52 ± 0.26 under setting [2].
For ISVTAYQNPQITQLKIAANPFAKG [TBX6] the same measures were 2.33 ± 0.22 and 2.36 ± 0.16.
In the case of KHNHSKSTWLILHHKVYDLTKFLE [CYB5A], the protein stability index came out at 2.6 ± 0.55 under setting [1] and 2.49 ± 0.41 under setting [2].
For LARKGSLKNGSMGSPVNQQPKKNN [FAM219A] the same measures were 4.85 ± 0.25 and 4.77 ± 0.065.
On the same counts, the results for AQKTALLQDGRRKVHYLFPDGKEM [DPCD] are 3.29 ± 0.22 and 3.62 ± 0.23.
On the same counts, the results for GRRYEAVKWMVVFAIGVCTGLVGL [CLCN6] are 3.33 ± 0.1 and 3.2 ± 0.092.
In the case of QPGLSFLNLGSGTGYLSTMVGLIL [PCMTD1], the protein stability index was 2.15 ± 0.29 under setting [1] and 2.2 ± 0.31 under setting [2].
On the same counts, the results for MEEDKLLSAVPEEGDATRDPGPEP [PSD2] are 5.54 ± 0.1 and 5.52 ± 0.16.
On the same counts, the results for HRDSSQAIPITELTKSQVQDKPYK [ZNF8] are 4.96 ± 0.2 and 5.1 ± 0.3.
For PEYREWNPELIKPKKLLNPVKASR [FAM107A] the same measures were 3.89 ± 0.13 and 4.09 ± 0.39.
On to PDCLRACQEQIEALLESSLRQAQQ [CCND1], for which the protein stability index under setting [1] came to 3.23 ± 0.34 and the protein stability index under setting [2] was 3.59 ± 0.38.
For ISLMYGGSKRKSSFFSSPPYFED [SLA], the protein stability index runs as follows: under setting [3], 2.22 ± 0.22; under setting [4], 2.27 ± 0.27.
With VNVPGSFVCQCYSGYALAEDGKRC [MATN2], the protein stability index is 2.75 ± 0.42 under setting [1] and 3.05 ± 0.46 under setting [2].
For VNVEMDAAPGVDLTRVLAEMREQY [KRT15] the same measures were 3.13 ± 0.42 and 3.27 ± 0.31.
Consider IFYFVIQRKKWVDLAWMITFYVRF [FADS1], for which the protein stability index reads like this: under setting [1], 2.6 ± 0.72; under setting [2], 2.93 ± 0.94.
On the same counts, the results for PVENFFVKCNGALINTSDTVQHGA [SDE2] are 3.07 ± 0.12 and 3.08 ± 0.26.
Regarding SKAPGSCDPGTDPCPEDASTPRPP [TLE6], the protein stability index amounted to 5.59 ± 0.28 under setting [1] and 5.45 ± 0.081 under setting [2].
On the same counts, the results for LRYLSSIWNILDLVVILLSIVAVG [PKD2L1] are 2.66 ± 0.65 and 3.3 ± 0.32.
For EDEEEEEGENYQKGERGEDSSEEK [CHGB] the same measures were 5.622 ± 0.029 and 5.66 ± 0.21.
In the case of SLCCCCRWCCCCGERETRTPEELT [CLCN6], the protein stability index by setting is: under setting [1], 3.66 ± 0.41; under setting [2], 3.88 ± 0.22.
For GERPRSEEDNELNLPNLAAAYSSI [GCH1] the same measures were 4.71 ± 0.3 and 4.75 ± 0.075.
